# Data as given in patent US20170305981.
# Key:
# AV199-232 = test system: T1, AV199-232
# T1 sequence: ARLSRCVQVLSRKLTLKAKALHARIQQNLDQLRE
# AV199-237 = test system: T2, AV199-237
# T2 sequence: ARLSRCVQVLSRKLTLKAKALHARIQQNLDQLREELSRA
substance,measurement,setting,value
"lipoprotein lipase (LpL), SIGMA","Km of LpL for substrate, with VLDL, 2.5 µM peptide",AV199-232,substantially improved the Km by almost 8-fold
same,"apparent affinity of LpL for substrate (Michaelis-Menten fit), AV199-232 (2.5 µM) + VLDL (10 µg/ml)",AV199-232,AV199-232+VLDL increases LpL's apparent affinity for substrate by 7.8-fold
same,"LpL hydrolytic activity (EnzChek fluorogenic TG substrate), peptide pre-incubated with VLDL",AV199-237,hydrolytic activity was increased ˜4-fold
same,affinity of LpL for substrate on addition of VLDL (10 µg/ml),apoC-III content of VLDL,The addition of VLDL reduced the enzymes affinity for substrate by 5.3-fold
